Results published in paper PMC12342251, “HBV capsid assembly modulators differentially modulate the assembly of wild-type and drug-resistant core protein chimeric nucleocapsids and empty capsids” (PLOS Pathogens, 2025).

Molecular target: the molecule itself
Assay: SEC

B1: WT-Cp149 dimer (HBV core protein residues 1-149) (domain or fragment)
chain: MDIDPYKEFGATVELLSFLPSDFFPSVRDLLDTASALYREALESPEHCSPHHTALRQAILCWGELMTLATWVGVNLEDPASRDLVVSYVNTNMGLKFRQLLWFHISCLTFGRETVIEYLVSFGVWIRTPPAYRPPNAPILSTLPETTVV
notes: source: E. coli NiCo21(DE3), purified
B1: binds.
